In PMC6142219 one finds stoichiometry N data, which are given here for one substance.

The target of this assay is CBS–CP12 protein (IPF_2164) of Microcystis aeruginosa PCC 7806 (Microcystis aeruginosa PCC 7806). Put plainly: SEC. Background: Size exclusion chromatography separates by hydrodynamic size, large species first.

As usually defined, the stoichiometry N is a count of units in the complex or per binding partner. “CBS–CP12 protein (IPF_2164) of Microcystis aeruginosa PCC 7806 (natural protein)” gave a stoichiometry N of 6.
